Sequences and labels used below:
B1: DNA topoisomerase 3-alpha, residues 812 to 851; numbered along this chain, Q13472 (parent)
chain: TCNCGQEAVLLTVRKEGPNRGRQFFKCNGGSCNFFLWADS
B2: Spectrin alpha chain, erythrocytic 1, residues 979 to 1036; numbered along this chain, P02549 (parent)
chain: EQRVMALYDFQARSPREVTMKKGDVLTLLSSINKDWWKVEAADHQGIVPAVYVRRLAH

± gives the uncertainty stated by the source.

Variants of B1 are the subject of one series. The experiment in a line: abundance fitness (aPCA) (normalised: wild type 0, dead -1); higher = more abundant; growth selection in yeast, the domain comes from the species named. The note with it: Homo sapiens.
On to TCNCGQEAVLLTVRKEGPNRGRQFFKCNVGSCNFFLWADS, for which the abundance fitness was -0.074 ± 0.068. On the same count and under the same terms, in the case of TCNCGQEAVLLTVRKEGPNRGRQFFKCNTGSCNFFLWADS it was -0.371 ± 0.22; in that of TCNCGQEAVLLTVRKEGPNRGRQFFKCNDGSCNFFLWADS, 0 ± 0.12; in that of TFNCGQEAVLLTVRKEGPNRGRQFFKCNGGSCNFFLWADS, -0.827 ± 0.38.

Consider TSNCGQEAVLLTVRKEGPNRGRQFFKCNGGSCNFFLWADS, for which the abundance fitness is -0.593 ± 0.24. With TCNCGQEAVLLTVRKEGPNRIRQFFKCNGGSCNFFLWADS, the abundance fitness is -0.787 ± 0.28.

As for TCNCGQEAVLLTVRKEGPNRNRQFFKCNGGSCNFFLWADS, the abundance fitness is -0.208 ± 0.11. Still for that read-out and setting: to TCNCGQEAVLLTVRKEGPNRVRQFFKCNGGSCNFFLWADS belongs -0.763 ± 0.11.

In a further series the parent is B2. The description is as above. The settings on record: Homo sapiens.
With EQFVMALYDFQARSPREVTMKKGDVLTLLSSINKDWWKVEAADHQGIVPAVYVRRLAH, the abundance fitness is 0.074 ± 0.12. On to EQHVMALYDFQARSPREVTMKKGDVLTLLSSINKDWWKVEAADHQGIVPAVYVRRLAH, for which the abundance fitness was -0.408 ± 0.21.

With EQWVMALYDFQARSPREVTMKKGDVLTLLSSINKDWWKVEAADHQGIVPAVYVRRLAH, the abundance fitness was -0.209 ± 0.26.

With EQVVMALYDFQARSPREVTMKKGDVLTLLSSINKDWWKVEAADHQGIVPAVYVRRLAH, the abundance fitness was -0.828 ± 0.36.

Take EQCVMALYDFQARSPREVTMKKGDVLTLLSSINKDWWKVEAADHQGIVPAVYVRRLAH: the abundance fitness is -0.645 ± 0.34.

For EQEVMALYDFQARSPREVTMKKGDVLTLLSSINKDWWKVEAADHQGIVPAVYVRRLAH, the abundance fitness was -0.582 ± 0.38.

EQYVMALYDFQARSPREVTMKKGDVLTLLSSINKDWWKVEAADHQGIVPAVYVRRLAH: the abundance fitness amounted to 0.294 ± 0.17. Same read-out and setting: in the case of EQQVMALYDFQARSPREVTMKKGDVLTLLSSINKDWWKVEAADHQGIVPAVYVRRLAH it was -0.272 ± 0.11.

Consider EQMVMALYDFQARSPREVTMKKGDVLTLLSSINKDWWKVEAADHQGIVPAVYVRRLAH, for which the abundance fitness is -0.448 ± 0.14. On the same count and under the same terms, in the case of EQPVMALYDFQARSPREVTMKKGDVLTLLSSINKDWWKVEAADHQGIVPAVYVRRLAH it was -0.94 ± 0.36. The same measure, in the same setting: in the case of EQLVMALYDFQARSPREVTMKKGDVLTLLSSINKDWWKVEAADHQGIVPAVYVRRLAH it was -0.14 ± 0.11; in that of EQAVMALYDFQARSPREVTMKKGDVLTLLSSINKDWWKVEAADHQGIVPAVYVRRLAH, -0.574 ± 0.2. Still for that read-out and setting: in the case of EQSVMALYDFQARSPREVTMKKGDVLTLLSSINKDWWKVEAADHQGIVPAVYVRRLAH it was -0.737 ± 0.2. In the case of EQTVMALYDFQARSPREVTMKKGDVLTLLSSINKDWWKVEAADHQGIVPAVYVRRLAH, the abundance fitness was -0.778 ± 0.14.

For EQKVMALYDFQARSPREVTMKKGDVLTLLSSINKDWWKVEAADHQGIVPAVYVRRLAH, the abundance fitness stood at 0.226 ± 0.099. Same read-out and setting: to EQRQMALYDFQARSPREVTMKKGDVLTLLSSINKDWWKVEAADHQGIVPAVYVRRLAH belongs -0.145 ± 0.18; to EQRCMALYDFQARSPREVTMKKGDVLTLLSSINKDWWKVEAADHQGIVPAVYVRRLAH, -0.52 ± 0.33; to EQRLMALYDFQARSPREVTMKKGDVLTLLSSINKDWWKVEAADHQGIVPAVYVRRLAH, -0.537 ± 0.098. As to EQRPMALYDFQARSPREVTMKKGDVLTLLSSINKDWWKVEAADHQGIVPAVYVRRLAH, the abundance fitness was -0.927 ± 0.21. Regarding EQRGMALYDFQARSPREVTMKKGDVLTLLSSINKDWWKVEAADHQGIVPAVYVRRLAH, the abundance fitness was -1.05 ± 0.28. On the same count and under the same terms, to EQRAMALYDFQARSPREVTMKKGDVLTLLSSINKDWWKVEAADHQGIVPAVYVRRLAH belongs -0.945 ± 0.25. The same measure, in the same setting: to EQRTMALYDFQARSPREVTMKKGDVLTLLSSINKDWWKVEAADHQGIVPAVYVRRLAH belongs -1.04 ± 0.23; to EQRMMALYDFQARSPREVTMKKGDVLTLLSSINKDWWKVEAADHQGIVPAVYVRRLAH, -0.716 ± 0.31.

On to EQRKMALYDFQARSPREVTMKKGDVLTLLSSINKDWWKVEAADHQGIVPAVYVRRLAH, for which the abundance fitness is -0.739 ± 0.16.

Turning to EQRRMALYDFQARSPREVTMKKGDVLTLLSSINKDWWKVEAADHQGIVPAVYVRRLAH, the abundance fitness is -0.877 ± 0.12. Same read-out and setting: to GQRVMALYDFQARSPREVTMKKGDVLTLLSSINKDWWKVEAADHQGIVPAVYVRRLAH belongs -0.425 ± 0.088. As to RQRVMALYDFQARSPREVTMKKGDVLTLLSSINKDWWKVEAADHQGIVPAVYVRRLAH, the abundance fitness is -0.215 ± 0.35. The same measure, in the same setting: in the case of DQRVMALYDFQARSPREVTMKKGDVLTLLSSINKDWWKVEAADHQGIVPAVYVRRLAH it was 0.242 ± 0.32; in that of ETRVMALYDFQARSPREVTMKKGDVLTLLSSINKDWWKVEAADHQGIVPAVYVRRLAH, -0.614 ± 0.38. Still for that read-out and setting: in the case of EVRVMALYDFQARSPREVTMKKGDVLTLLSSINKDWWKVEAADHQGIVPAVYVRRLAH it was -0.384 ± 0.37. Turning to EERVMALYDFQARSPREVTMKKGDVLTLLSSINKDWWKVEAADHQGIVPAVYVRRLAH, the abundance fitness stood at 0.108 ± 0.22. In the case of EDRVMALYDFQARSPREVTMKKGDVLTLLSSINKDWWKVEAADHQGIVPAVYVRRLAH, the abundance fitness was determined as 0.855 ± 0.26. Same read-out and setting: to EPRVMALYDFQARSPREVTMKKGDVLTLLSSINKDWWKVEAADHQGIVPAVYVRRLAH belongs -0.874 ± 0.36; to ESRVMALYDFQARSPREVTMKKGDVLTLLSSINKDWWKVEAADHQGIVPAVYVRRLAH, -0.822 ± 0.42; to EHRVMALYDFQARSPREVTMKKGDVLTLLSSINKDWWKVEAADHQGIVPAVYVRRLAH, -0.061 ± 0.13. As for EARVMALYDFQARSPREVTMKKGDVLTLLSSINKDWWKVEAADHQGIVPAVYVRRLAH, the abundance fitness is -0.002 ± 0.27. On the same count and under the same terms, in the case of ELRVMALYDFQARSPREVTMKKGDVLTLLSSINKDWWKVEAADHQGIVPAVYVRRLAH it was -0.573 ± 0.5; in that of ERRVMALYDFQARSPREVTMKKGDVLTLLSSINKDWWKVEAADHQGIVPAVYVRRLAH, -0.401 ± 0.17. The same measure, in the same setting: in the case of EFRVMALYDFQARSPREVTMKKGDVLTLLSSINKDWWKVEAADHQGIVPAVYVRRLAH it was 0.195 ± 0.48; in that of EGRVMALYDFQARSPREVTMKKGDVLTLLSSINKDWWKVEAADHQGIVPAVYVRRLAH, -0.187 ± 0.17. Still for that read-out and setting: to EQRVKALYDFQARSPREVTMKKGDVLTLLSSINKDWWKVEAADHQGIVPAVYVRRLAH belongs -0.201 ± 0.39; to EQRVGALYDFQARSPREVTMKKGDVLTLLSSINKDWWKVEAADHQGIVPAVYVRRLAH, -0.813 ± 0.092. Take EQRVEALYDFQARSPREVTMKKGDVLTLLSSINKDWWKVEAADHQGIVPAVYVRRLAH: the abundance fitness turned out to be 0.081 ± 0.15. On the same count and under the same terms, to EQRVIALYDFQARSPREVTMKKGDVLTLLSSINKDWWKVEAADHQGIVPAVYVRRLAH belongs 0.162 ± 0.14; to EQRVCALYDFQARSPREVTMKKGDVLTLLSSINKDWWKVEAADHQGIVPAVYVRRLAH, -0.516 ± 0.18. On the same count and under the same terms, to EQRVAALYDFQARSPREVTMKKGDVLTLLSSINKDWWKVEAADHQGIVPAVYVRRLAH belongs -0.587 ± 0.14.

These data come from the Human Domainome abundance scans (Beltran et al. 2025).
